Measured values published in PMC8775935, “Chebulinic Acid Suppresses Adipogenesis in 3T3-L1 Preadipocytes by Inhibiting PPP1CB Activity” (International Journal of Molecular Sciences, 2022).

Substrate: Cc1cc(=O)oc2c(F)c(OP(=O)(O)O)c(F)cc12
Test: enzyme kinetics, fluorescence of DiFMU product; KM
Type: biochemical, Homo sapiens
Conditions: Mn2+ ([…] MnCl2 in buffer)

B1: protein phosphatase-1 catalytic subunit beta (PPP1CB) (Homo sapiens) (protein)
chain: MADGELNVDSLITRLLEVRGCRPGKIVQMTEAEVRGLCIKSREIFLSQPILLELEAPLKICGDIHGQYTDLLRLFEYGGFPPEANYLFLGDYVDRGKQSLETICLLLAYKIKYPENFFLLRGNHECASINRIYGFYDECKRRFNIKLWKTFTDCFNCLPIAAIVDEKIFCCHGGLSPDLQSMEQIRRIMRPTDVPDTGLLCDLLWSDPDKDVQGWGENDRGVSFTFGADVVSKFLNRHDLDLICRAHQVVEDGYEFFAKRQLVTLF
In the case of B1, the Km is reported as 186.2 µM, the Vmax is reported as 3.4 µM/min and the kcat is reported as 38.3 s⁻¹. It also gave a kcat/Km of 210000 M⁻¹ s⁻¹.
